Experimental data published in doi:10.1101/2025.02.04.636439 (bioRxiv, 2025).

Target: T1, Mycobacterium tuberculosis thiosulfate-sulfurtransferase SseA (Mycobacterium tuberculosis, UniProt P9WHF7 1-297)
T1 sequence: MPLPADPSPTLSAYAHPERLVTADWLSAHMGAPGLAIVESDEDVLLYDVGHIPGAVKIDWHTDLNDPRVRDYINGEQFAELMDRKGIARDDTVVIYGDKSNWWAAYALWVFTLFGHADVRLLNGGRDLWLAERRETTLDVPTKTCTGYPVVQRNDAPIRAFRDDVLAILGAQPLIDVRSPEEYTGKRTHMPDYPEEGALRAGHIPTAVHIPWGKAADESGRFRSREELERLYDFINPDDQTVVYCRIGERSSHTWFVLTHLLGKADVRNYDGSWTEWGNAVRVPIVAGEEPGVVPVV
Assay: ITC

B1: SufEMtb (Rv3284), SufE-like protein of Mycobacterium tuberculosis (natural protein)
chain: MTAPASLPAPLAEVVSDFAEVQGQDKLRLLLEFANELPALPSHLAESAMEPVPECQSPLFLHVDASDPNRVRLHFSAPAEAPTTRGFASILAAGLDEQPAADILAVPEDFYTELGLAALISPLRLRGMSAMLARIKRRLREAD
  Kd: 3.3 µM
  dH: -11.6 kcal/mol
  stoichiometry N: 1
